For the assay, the target named is T1, STI1 TPR2A domain (residues 217-352) (mouse, UniProt Q60864 217-352).
T1 construct: STI1, mouse, TPR2A domain, residues 217-352; The tag is TEV-cleavable
The following applies: both partners purified.

T1 sequence (Q60864 217-352): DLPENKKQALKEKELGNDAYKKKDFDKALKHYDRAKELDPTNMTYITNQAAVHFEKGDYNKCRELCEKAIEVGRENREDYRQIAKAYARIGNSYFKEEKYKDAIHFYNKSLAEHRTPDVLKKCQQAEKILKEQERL

B1: Hsp90 pentapeptide (MEEVD), C-terminus of Hsp90 (peptide)
peptide: MEEVD
notes: pentapeptide motif of the C-terminus of Hsp90; also called Hsp90 peptide
For the molecule B1, the binding result is “binds”.

(Values after PMC9547791 (Acta Neuropathologica, 2022).)
